Test results from paper PMC10440475 (Heliyon, 2023).
Where “and” joins values, the source holds several entries; their conditions need not be identical. Equal entries are not always repeated.

Biological target: the molecule itself
Experiment: PFO-PAGE

B1: eGFP-fused Shaker potassium channel protein (natural protein)
chain: MAAVAGLYGLGEDRQHRKKQQQQQQHQKEQLEQKEEQKKIAERKLQLREQQLQRNSLDGYGSLPKLSSQDEEGGAGHGFGGGPQHFEPIPHDHDFCERVVINVSGLRFETQLRTLNQFPDTLLGDPARRLRYFDPLRNEYFFDRSRPSFDAILYYYQSGGRLRRPVNVPLDVFSEEIKFYELGDQAINKFREDEGFIKEEERPLPDNEKQRKVWLLFEYPESSQAARVVAIISVFVILLSIVIFCLETLPEFKHYKVFNTTTNGTKIEEDEVPDITDPFFLIETLCIIWFTFELTVRFLACPNKLNFCRDVMNVIDIIAIIPYFITLATVVAEEEDTLNLPKAPVSPQDKSSNQAMSLAILRVIRLVRVFRIFKLSRHSKGLQILGRTLKASMRELGLLIFFLFIGVVLFSSAVYFAEAGSENSFFKSIPDAFWWAVVTMTTVGYGDMTPVGVWGKIVGSLCAIAGVLTIALPVPVIVSNFNYFYHRETDQEEMQSQNFNHVTSCPYLPGTLGQHMKKSSLSESSSDMMDLDDGVESTPGLTETHPGRSAVAPFLGAQQQQQQPVASSLSMSIDKQLQHPLQQLTQTQLYQQQQQQQQQQQNGFKQQQQQTQQQLQQQQSHTINASAAAATSGSGSSGLTMRHNNALAVSIETDV
B1 was tested, and the “stoichiometry N” value was 2 and 4.
